Laboratory results taken from the supplement of paper PMC9112550, “Optimization of the antimicrobial peptide Bac7 by deep mutational scanning” (BMC Biology, 2022).

Test system: Escherichia coli TOP10
Assay: shrunken log2 fold change of peptide-encoding DNA abundance (4.5 h post-induction vs induction); higher = less antimicrobial activity (less host growth inhibition)
Settings: time post-induction: 4.5 h; library: site-saturation at positions 5, 18, 19, 20
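Further: peptides expressed intracellularly from a pBAD plasmid library in pooled LB shake-flask culture, induced with 0.3% L-arabinose, DNA abundance read by NGS, three biological replicates, DESeq2 with apeglm shrinkage.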

RRIRNRPPRLPRPRPRPNDWPRP
shrunken log2 fold change: 0.0943

RRIRSRPPRLPRPRPRPQQAPRP
shrunken log2 fold change: 0.0031

RRIRIRPPRLPRPRPRPPWGPRP
shrunken log2 fold change: 0.0517

RRIRFRPPRLPRPRPRPEPMPRP
shrunken log2 fold change: -0.278

RRIRSRPPRLPRPRPRPIINPRP
shrunken log2 fold change: -0.565

RRIRCRPPRLPRPRPRPYTKPRP
shrunken log2 fold change: -0.321

RRIRCRPPRLPRPRPRPPETPRP
shrunken log2 fold change: 0.105

RRIRFRPPRLPRPRPRPWGVPRP
shrunken log2 fold change: -0.517

RRIRFRPPRLPRPRPRPPDVPRP
shrunken log2 fold change: 0.0274

RRIRCRPPRLPRPRPRPNSPPRP
shrunken log2 fold change: -0.217

RRIRIRPPRLPRPRPRPLLQPRP
shrunken log2 fold change: -0.163

RRIRNRPPRLPRPRPRPKDQPRP
shrunken log2 fold change: -0.108

RRIRLRPPRLPRPRPRPVGKPRP
shrunken log2 fold change: -0.0227

RRIRGRPPRLPRPRPRPSTDPRP
shrunken log2 fold change: 0.899

RRIRRRPPRLPRPRPRPFITPRP
shrunken log2 fold change: -0.257

RRIRDRPPRLPRPRPRPKFVPRP
shrunken log2 fold change: 0.0202

RRIRGRPPRLPRPRPRPMQLPRP
shrunken log2 fold change: 0.539

RRIRIRPPRLPRPRPRPGKDPRP
shrunken log2 fold change: 0.00215

RRIRTRPPRLPRPRPRPPHKPRP
shrunken log2 fold change: 0.242

RRIRWRPPRLPRPRPRPGRSPRP
shrunken log2 fold change: 0.0808

RRIRKRPPRLPRPRPRPLYVPRP
shrunken log2 fold change: 0.0738

RRIRLRPPRLPRPRPRPDDVPRP
shrunken log2 fold change: -0.00776

RRIRSRPPRLPRPRPRPRAMPRP
shrunken log2 fold change: 0.107

RRIRPRPPRLPRPRPRPEHNPRP
shrunken log2 fold change: -0.169

RRIRARPPRLPRPRPRPQIFPRP
shrunken log2 fold change: -0.0149

RRIRTRPPRLPRPRPRPQVLPRP
shrunken log2 fold change: -0.0479

RRIRARPPRLPRPRPRPMFKPRP
shrunken log2 fold change: -0.106

RRIRFRPPRLPRPRPRPCWRPRP
shrunken log2 fold change: -0.199

RRIRVRPPRLPRPRPRPIMTPRP
shrunken log2 fold change: -0.359

RRIRSRPPRLPRPRPRPWCPPRP
shrunken log2 fold change: -0.549

RRIRNRPPRLPRPRPRPLKDPRP
shrunken log2 fold change: -0.0618

RRIRVRPPRLPRPRPRPNSPPRP
shrunken log2 fold change: -0.271

RRIRFRPPRLPRPRPRPEFPPRP
shrunken log2 fold change: -0.132

RRIRRRPPRLPRPRPRPIMLPRP
shrunken log2 fold change: -0.272

RRIRARPPRLPRPRPRPAGPPRP
shrunken log2 fold change: 0.453

RRIRIRPPRLPRPRPRPFLYPRP
shrunken log2 fold change: -0.84

RRIRWRPPRLPRPRPRPKKCPRP
shrunken log2 fold change: 0.18

RRIRKRPPRLPRPRPRPICMPRP
shrunken log2 fold change: 0.0199

RRIRGRPPRLPRPRPRPCQCPRP
shrunken log2 fold change: 0.268

RRIRKRPPRLPRPRPRPGEGPRP
shrunken log2 fold change: 0.0997

RRIRWRPPRLPRPRPRPAARPRP
shrunken log2 fold change: 0.622

RRIRQRPPRLPRPRPRPFTTPRP
shrunken log2 fold change: -0.0246

RRIRPRPPRLPRPRPRPITCPRP
shrunken log2 fold change: 0.102

RRIRLRPPRLPRPRPRPDEFPRP
shrunken log2 fold change: 0.0159

RRIRLRPPRLPRPRPRPPQIPRP
shrunken log2 fold change: 0.0736

RRIRFRPPRLPRPRPRPKHPPRP
shrunken log2 fold change: 0.194

RRIRARPPRLPRPRPRPMMAPRP
shrunken log2 fold change: 0.466

RRIRYRPPRLPRPRPRPVLQPRP
shrunken log2 fold change: -0.297

RRIRWRPPRLPRPRPRPNVAPRP
shrunken log2 fold change: 0.088

RRIRIRPPRLPRPRPRPVDKPRP
shrunken log2 fold change: 0.0266

RRIRCRPPRLPRPRPRPSFWPRP
shrunken log2 fold change: -0.0552

RRIRCRPPRLPRPRPRPKCDPRP
shrunken log2 fold change: -0.135

RRIRYRPPRLPRPRPRPHSRPRP
shrunken log2 fold change: -0.103

RRIRSRPPRLPRPRPRPILPPRP
shrunken log2 fold change: 0.161

RRIRARPPRLPRPRPRPHPMPRP
shrunken log2 fold change: -0.026

RRIRRRPPRLPRPRPRPRDGPRP
shrunken log2 fold change: 0.731

RRIRYRPPRLPRPRPRPTTIPRP
shrunken log2 fold change: -0.769

RRIRKRPPRLPRPRPRPYVFPRP
shrunken log2 fold change: -0.0884

RRIRERPPRLPRPRPRPAYRPRP
shrunken log2 fold change: -0.429

RRIRVRPPRLPRPRPRPWYIPRP
shrunken log2 fold change: -0.0193

RRIRVRPPRLPRPRPRPMATPRP
shrunken log2 fold change: -0.182

RRIRFRPPRLPRPRPRPKNQPRP
shrunken log2 fold change: -0.195

RRIRWRPPRLPRPRPRPYMDPRP
shrunken log2 fold change: -0.551

RRIRTRPPRLPRPRPRPWNHPRP
shrunken log2 fold change: 0.0317

RRIRARPPRLPRPRPRPHHWPRP
shrunken log2 fold change: 0.145

RRIRCRPPRLPRPRPRPAVYPRP
shrunken log2 fold change: 0.0903

RRIRSRPPRLPRPRPRPISYPRP
shrunken log2 fold change: -0.117

RRIRERPPRLPRPRPRPYTFPRP
shrunken log2 fold change: -0.282

RRIRGRPPRLPRPRPRPFMTPRP
shrunken log2 fold change: 0.837

RRIRNRPPRLPRPRPRPNEPPRP
shrunken log2 fold change: -0.000856

RRIRNRPPRLPRPRPRPYFEPRP
shrunken log2 fold change: -0.797

RRIRYRPPRLPRPRPRPRWCPRP
shrunken log2 fold change: 0.246

RRIRLRPPRLPRPRPRPCKSPRP
shrunken log2 fold change: -0.264

RRIRARPPRLPRPRPRPIGSPRP
shrunken log2 fold change: -0.0508

RRIRWRPPRLPRPRPRPWGFPRP
shrunken log2 fold change: 0.27

RRIRCRPPRLPRPRPRPLENPRP
shrunken log2 fold change: -0.102

RRIRHRPPRLPRPRPRPHVPPRP
shrunken log2 fold change: 0.084

RRIRMRPPRLPRPRPRPHGRPRP
shrunken log2 fold change: -0.0383

RRIRVRPPRLPRPRPRPWGPPRP
shrunken log2 fold change: -0.164

RRIRMRPPRLPRPRPRPVANPRP
shrunken log2 fold change: 0.331

RRIRMRPPRLPRPRPRPRTDPRP
shrunken log2 fold change: -0.0668

RRIRCRPPRLPRPRPRPCLPPRP
shrunken log2 fold change: -0.439

RRIRIRPPRLPRPRPRPHNIPRP
shrunken log2 fold change: -0.424

RRIRYRPPRLPRPRPRPYQWPRP
shrunken log2 fold change: -0.257

RRIRRRPPRLPRPRPRPCDLPRP
shrunken log2 fold change: 0.0275

RRIRVRPPRLPRPRPRPACCPRP
shrunken log2 fold change: 0.161

RRIRVRPPRLPRPRPRPPEYPRP
shrunken log2 fold change: -0.225

RRIRYRPPRLPRPRPRPPKYPRP
shrunken log2 fold change: -0.97

RRIRCRPPRLPRPRPRPKSVPRP
shrunken log2 fold change: 0.0362

RRIRIRPPRLPRPRPRPENRPRP
shrunken log2 fold change: -0.176

RRIRVRPPRLPRPRPRPWIHPRP
shrunken log2 fold change: -0.349

RRIRARPPRLPRPRPRPTYSPRP
shrunken log2 fold change: -0.204

RRIRLRPPRLPRPRPRPSFGPRP
shrunken log2 fold change: 0.197

RRIRWRPPRLPRPRPRPRWIPRP
shrunken log2 fold change: 0.211

RRIRVRPPRLPRPRPRPYKPPRP
shrunken log2 fold change: -0.757

RRIRTRPPRLPRPRPRPIQSPRP
shrunken log2 fold change: -0.0351

RRIRDRPPRLPRPRPRPESEPRP
shrunken log2 fold change: 0.444

RRIRFRPPRLPRPRPRPFKWPRP
shrunken log2 fold change: -0.269

RRIRIRPPRLPRPRPRPCNHPRP
shrunken log2 fold change: -0.232

RRIRMRPPRLPRPRPRPDNGPRP
shrunken log2 fold change: -0.0901

RRIRPRPPRLPRPRPRPCATPRP
shrunken log2 fold change: 0.132

RRIRIRPPRLPRPRPRPRSCPRP
shrunken log2 fold change: 0.16

RRIRSRPPRLPRPRPRPYLQPRP
shrunken log2 fold change: -0.176

RRIRVRPPRLPRPRPRPVTDPRP
shrunken log2 fold change: -0.171

RRIRQRPPRLPRPRPRPFSPPRP
shrunken log2 fold change: -0.0643

RRIRGRPPRLPRPRPRPPAPPRP
shrunken log2 fold change: 1.6

RRIRDRPPRLPRPRPRPFEMPRP
shrunken log2 fold change: 0.182

RRIRRRPPRLPRPRPRPDWNPRP
shrunken log2 fold change: -0.223

RRIRTRPPRLPRPRPRPNSAPRP
shrunken log2 fold change: -0.181

RRIRARPPRLPRPRPRPKRDPRP
shrunken log2 fold change: 0.135

RRIRRRPPRLPRPRPRPNPAPRP
shrunken log2 fold change: 0.643

RRIRYRPPRLPRPRPRPDFAPRP
shrunken log2 fold change: 0.0515

RRIRNRPPRLPRPRPRPYEKPRP
shrunken log2 fold change: -0.0332

RRIRIRPPRLPRPRPRPFSAPRP
shrunken log2 fold change: -0.517

RRIRCRPPRLPRPRPRPSRQPRP
shrunken log2 fold change: 0.222

RRIRPRPPRLPRPRPRPHFEPRP
shrunken log2 fold change: 0.0605

RRIRNRPPRLPRPRPRPYMLPRP
shrunken log2 fold change: -0.14

RRIRWRPPRLPRPRPRPSFTPRP
shrunken log2 fold change: -0.397

RRIRKRPPRLPRPRPRPISEPRP
shrunken log2 fold change: 0.213

RRIRLRPPRLPRPRPRPKWGPRP
shrunken log2 fold change: 0.0532

RRIRGRPPRLPRPRPRPCHHPRP
shrunken log2 fold change: -0.00543

RRIRSRPPRLPRPRPRPYVVPRP
shrunken log2 fold change: -0.314

RRIRWRPPRLPRPRPRPQNMPRP
shrunken log2 fold change: -0.0938

RRIRQRPPRLPRPRPRPGRLPRP
shrunken log2 fold change: 0.0206

RRIRLRPPRLPRPRPRPNKCPRP
shrunken log2 fold change: -0.323
